Test results: publication PMC11574021, “CEP192 localises mitotic Aurora-A activity by priming its interaction with TPX2” (The EMBO Journal, 2024)

What was measured:
[1] = test system: Aurora-A-pT288 in U251 cells; assay: Western blot densitometry of Aurora-A-pT288, mitotic U251 cells; assay type: cell-based, Homo sapiens; settings: mitotic U251 (and RPE1) lysates, siRNA 48 h, in words
Experimental: For western blotting analysis of mitotic lysates, cells were synchronised in mitosis with 10 µM S-Trityl-L-cysteine (STLC, Bio-Techne, 2191-50), an Eg5 inhibitor, for 20 h prior to collecting by mitotic shake-off. For measuring monopolar spindle diameter and counting centriolar foci by immunofluorescence, cells were treated with 10 µM STLC for 1 h and 4 h prior to fixation, respectively.
As noted in the figures, the following drugs were incubated with cells for 30 min at 37 °C: Aurora-B-i ZM447439 2 µM [10 mM], PLK1-I BI2536 1 µM [10 mM] and Aurora-A-i MLN8237 [5 mM] was used at 250 and 500 nM in U251 and RPE1 cells, respectively. Drugs were resuspended in DMSO to the stock concentrations indicated in square brackets. BI2536 (HY-50698), MLN8237 (HY-10971) and ZM447439 (HY-10128) were all purchased from MedChemExpress. For western blotting, a 20-min pre-treatment with proteasome inhibitor (20 µM MG-132, MerckMillipore, 47490 [20 mM]) was required prior to the addition of DMSO control or kinase inhibitors. This prevented mitotic exit as a consequence of checkpoint override following Aurora-A and Aurora-B inhibitor addition.
Cells were lysed on ice for 30 min in lysis buffer (50 mM tris pH 8.0, 300 mM NaCl, 0.2%(v/v) NP-40, 10%(v/v) glycerol, protease inhibitor cocktail C, phosphatase inhibitor cocktail 3 (Sigma, 1:200 dilution), 100 nM okadaic acid (Enzo, ALX-350-003-C100)). Lysates were then centrifuged at 14,000 × g, 15 min, 4 °C, the supernatants were transferred to a fresh tube, and the pellet was discarded. Protein concentrations were measured by Bradford assay using Protein Assay Dye Reagent Concentrate (Bio-Rad Laboratories, 5000006). NuPage LDS sample buffer, supplemented with NuPAGE sample reducing agent (Invitrogen) were added prior to boiling for 10 min at 90 °C. […]
Densitometric quantification of western blots was also performed in ImageJ. Intensity was measured in a rectangular region of interest (ROI) around each band. […] An adjacent region was also measured to account for background intensity.

[2] = test system: PPP1CA-pT320, PRC1-pT481 and Histone-H3-pS10 in U251 cells; assay: Western blot, mitotic phosphorylations (PPP1CA-pT320, PRC1-pT481, Histone-H3-pS10), asynchronous U251; assay type: cell-based, Homo sapiens; settings: asynchronous U251, siRNA 48 h
Experimental: Cells were lysed on ice for 30 min in lysis buffer (50 mM tris pH 8.0, 300 mM NaCl, 0.2%(v/v) NP-40, 10%(v/v) glycerol, protease inhibitor cocktail C, phosphatase inhibitor cocktail 3 (Sigma, 1:200 dilution), 100 nM okadaic acid (Enzo, ALX-350-003-C100)). Lysates were then centrifuged at 14,000 × g, 15 min, 4 °C, the supernatants were transferred to a fresh tube, and the pellet was discarded. Protein concentrations were measured by Bradford assay using Protein Assay Dye Reagent Concentrate (Bio-Rad Laboratories, 5000006). NuPage LDS sample buffer, supplemented with NuPAGE sample reducing agent (Invitrogen) were added prior to boiling for 10 min at 90 °C. Equal amounts of protein, between 8–20 µg/lane, were loaded into pre-cast 4–12% Bis-Tris gels (Invitrogen, NP0322BOX) and proteins separated in 1x MOPS buffer (Invitrogen) and transferred to nitrocellulose membrane (0.45 µM). Nitrocellulose was then blocked in 5% milk (wt/v) in TBS, 0.1% Tween (v/v) (TBST) for 1 h. Primary and secondary antibodies were diluted in 5% milk, TBST and incubated overnight at 4 °C or for 1 h at room temperature, respectively. Species-specific secondary antibodies conjugated to horseradish peroxidase (HRP) were used (anti-Mouse, Cytiva NA931V; anti-Rabbit, Cytiva NA934; anti-Sheep, Jackson 713-035-003). Membranes were washed for 1 h in TBST, changing the buffer five times, after each antibody incubation.
siRNA depletion was carried out by reverse transfection using oligofectamine (Thermo Scientific, 12252011) and lipofectamine RNAiMax (Thermo Scientific, 13778075), according to the manufacturer’s instructions, for U251 and RPE1 cells, respectively. For immunofluorescence, 1 × 10^5 cells were seeded in six-well plates and simultaneously transfected with 60 pmol siRNA duplex and 3 µl transfection reagent diluted in 200 µl Opti-MEM serum-free medium. Growth medium was added to a final volume of 2 ml. For western blotting, 1 × 10^6 cells were seeded in 10 cm dishes and transfected with 300 pmol siRNA duplex and 15 µl transfection reagent diluted in 1000 µl Opti-MEM. […]

[3] = target: FAM-CEP192 501–533 (human) (UniProt Q8TEP8); assay: fluorescence polarisation; direct fluorescence anisotropy: Aurora-A diluted across the plate, 50 nM tracer FAM-CEP192 501–533; 25 mM HEPES pH 7.5, 150 mM NaCl, 2 mM DTT, 5 mM MgCl2, 0.01% Tween 20; 1 h at room temperature
Aurora-A = settings: from fluorescence polarisation; ref (Burgess et al, [2015]; McIntyre et al, [2017]; Zorba et al, [2014]); cited from earlier work
Experimental: This is a higher affinity than observed in a previous study that used CEP192 proteins fused to MBP, a large protein tag that might have affected the interaction (Park et al, [2023]). For context, the affinity of Aurora-A for its other key mitotic partners are: TPX2_1-43 (Kd 0.3–2 μM from ITC) and TACC ...

[4] = target: T1, phosphorylated Aurora-A^CAKD (Aurora-A 122–403 C290A C393A, not co-expressed with lambda phosphatase) (human, UniProt O14965 122-403, C290A | C393A, phosphorylated (sites of this preparation not printed in the text shown)); assay: cell-based or functional assay
T1 sequence (looked up): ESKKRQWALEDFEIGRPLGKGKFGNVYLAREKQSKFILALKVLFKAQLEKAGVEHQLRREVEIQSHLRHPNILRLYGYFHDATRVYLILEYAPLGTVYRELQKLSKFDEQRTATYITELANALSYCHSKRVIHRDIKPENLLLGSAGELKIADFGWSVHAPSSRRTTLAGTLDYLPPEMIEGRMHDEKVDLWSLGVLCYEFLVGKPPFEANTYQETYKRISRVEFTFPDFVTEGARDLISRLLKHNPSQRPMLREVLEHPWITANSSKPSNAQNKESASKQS

[5] = target: T2, Aurora-A^CAKD (Aurora-A kinase domain, aa 122–403 C290A, C393A), unphosphorylated (human, UniProt O14965 122-403, C290A | C393A); assay: fluorescence polarisation; competition: 10 μM unphosphorylated Aurora-A^CAKD preincubated with 100 nM FAM-TPX2 7-43, CEP192 competitor serially diluted; 25 mM HEPES pH 7.5, 150 mM NaCl, 2 mM DTT, 5 mM MgCl2, 0.01% Tween 20; settings: both partners purified
T2 construct: Aurora-A kinase domain, human, residues 122-403, variant lacking surface cysteines; also called Aurora-A 122–403 C290A C393A; unphosphorylated Aurora-A^CAKD; source: E. coli RIL, co-expressed with lambda phosphatase, purified (HisTrap, TEV cleavage, SEC); not shown: His6, N-terminal, cleaved
T2 sequence (looked up): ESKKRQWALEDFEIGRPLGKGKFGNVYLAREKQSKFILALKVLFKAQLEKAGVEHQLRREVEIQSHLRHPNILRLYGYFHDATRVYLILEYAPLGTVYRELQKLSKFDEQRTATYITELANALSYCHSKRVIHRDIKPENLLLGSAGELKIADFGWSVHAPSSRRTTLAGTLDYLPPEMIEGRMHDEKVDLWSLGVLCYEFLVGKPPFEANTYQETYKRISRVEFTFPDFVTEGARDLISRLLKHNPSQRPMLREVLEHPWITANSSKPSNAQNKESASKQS

[6] = target: T3, unphosphorylated Aurora-A CAKD (Homo sapiens, UniProt O14965, C290A/C393A); assay: Fluorescence anisotropy competition with FAM-TPX2 7-43; assay type: binding; settings: competition with 100 nM FAM-TPX2 7-43, 10 μM unphosphorylated Aurora-A CAKD, n = 3 (Appendix Fig. S4E)
T3 construct: 10 μM Aurora-A kinase domain (phosphorylated or unphosphorylated C290A C393A 122–403); His (N, cleaved yes); made in house; host or cells: E. coli RIL, co-expressed with lambda phosphatase
T3 sequence (O14965 122-403 C290A/C393A): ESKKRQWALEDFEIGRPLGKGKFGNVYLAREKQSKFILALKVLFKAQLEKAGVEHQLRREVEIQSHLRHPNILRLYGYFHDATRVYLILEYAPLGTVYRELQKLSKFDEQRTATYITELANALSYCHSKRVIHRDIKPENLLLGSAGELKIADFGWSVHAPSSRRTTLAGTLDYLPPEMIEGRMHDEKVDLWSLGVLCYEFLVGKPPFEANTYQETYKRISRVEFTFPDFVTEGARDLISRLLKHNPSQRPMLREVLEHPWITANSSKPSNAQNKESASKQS
Experimental: Assays were performed in 25 mM HEPES pH 7.5, 150 mM NaCl, 2 mM DTT, 5 mM MgCl2, 0.01% Tween 20. For CEP192 and TPX2 competition assays 10 μM Aurora-A kinase domain (phosphorylated or unphosphorylated C290A C393A 122–403) was preincubated on ice with 100 nM FAM-TPX2 7-43 or 100 nM FAM-CEP192 501–533. For TACC3 competition, due to weaker binding, 25 μM Aurora-A kinase domain (phosphorylated or unphosphorylated C290A C393A 122–403) was preincubated with 100 nM FAM-TACC3 522-536. Serial dilutions of competitor (CEP192) were performed in triplicate into a low volume 384-well black plate, before the premixed Aurora-A and tracer were added. A control row included no tracer. Plates were left incubating for 1 h at room temperature before the fluorescence anisotropy was measured using a HIDEX plate reader, with excitation at 485 nm and emission at 535 nm. For direct binding experiments, the assay was performed as above, but the Aurora-A (122–403 C290A C393A or point mutants) was diluted across the plate from high to low concentration, before the addition of 50 nM tracer (FAM-CEP192 501–533) to three replicate rows. Buffer only was added to the control row.
Fluorescence anisotropy data were processed using Microsoft Excel to calculate intensity and anisotropy using the equation listed in (Yeo et al, [2013]). The IC50 and Kd values were calculated using Origin (OriginLab) where the data fitted to a sigmoid and are summarised in Appendix Table S3.

[7] = target: T4, Aurora-A^M3KD (Aurora-A 122–403 C290A C393A D274N) (human, UniProt O14965 122-403, D274N | C290A | C393A); assay: ITC; CEP192 442–533 titrated into Aurora-A kinase domain (by the legend); 25 °C; 20 mM tris pH 7.5, 200 mM NaCl, 10% glycerol, 5 mM MgCl2; two repeats; settings: both partners purified
T4 construct: Aurora-A kinase domain, human, residues 122-403; also called Aurora-A kinase domain (122–403 C290A C393A D274N); source: E. coli, purified (HisTrap, TEV cleavage, SEC); not shown: His6, N-terminal, cleaved
T4 sequence (looked up): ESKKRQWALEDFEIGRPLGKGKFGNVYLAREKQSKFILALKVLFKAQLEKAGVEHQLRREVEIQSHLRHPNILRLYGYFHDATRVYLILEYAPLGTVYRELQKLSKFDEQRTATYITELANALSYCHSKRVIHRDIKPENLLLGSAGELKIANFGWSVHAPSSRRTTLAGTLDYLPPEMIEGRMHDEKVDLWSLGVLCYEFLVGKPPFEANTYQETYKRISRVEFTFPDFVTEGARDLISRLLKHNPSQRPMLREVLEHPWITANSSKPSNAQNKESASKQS

[8] = target: T2, Aurora-A^CAKD (Aurora-A kinase domain, …); assay: fluorescence polarisation; competition: 25 μM Aurora-A kinase domain preincubated with 100 nM FAM-TACC3 522-536, CEP192 competitor serially diluted; 25 mM HEPES pH 7.5, 150 mM NaCl, 2 mM DTT, 5 mM MgCl2, 0.01% Tween 20; settings: both partners purified

## 5′-GGAUAUGGUUGAUCCUAUAtt-3′ [siBora]
[1]
  activation loop phosphorylation (pT288) of Aurora-A in mitotic cell lysates: no discernible effect
[2]
  mitotic phosphorylations (PPP1CA-pT320, PRC1-pT481, Histone-H3-pS10): increased levels of mitotic phosphorylations

## Aurora-A^KD R151A (Aurora-A 122–403 R151A) (from UniProt O14965 122-403) (domain or fragment)
[3]
  Kd: > 10 µM

## TACC3 519-563: TACC3 fragment, literature affinity (ELKEESFRDPAEVLGTGAEVDYLEQFGTSSFKESALRKQSLYLKF; UniProt Q9Y6A5 519-563, looked up, fragment)
Aurora-A
  Kd: ~6 µM

## Aurora-A^KD R205A (Aurora-A 122–403 R205A) (from UniProt O14965 122-403) (domain or fragment)
[3]
  Kd: > 5 µM

## Aurora-A^KD F165D (Aurora-A 122–403 F165D) (from UniProt O14965 122-403) (domain or fragment)
[3]
  Kd: > 5 µM

B1: human CEP192 468–533 L484D (domain or fragment, UniProt Q8TEP8 468-533, looked up)
chain: PQSVVYQNEEGRWVTDDAYYTSFNSKQNLNVSLSDEMNEDFRSGSEAFDLIAQDEEEFNKEHQFIQ
notes: source: E. coli B834 RIL, purified (HisTrap, TEV cleavage, SEC); not shown: His6, N-terminal, cleaved; SUMO, N-terminal, cleaved
[4]
  ADP-Glo, 10 nM phosphorylated Aurora-A^CAKD with kemptide: IC50 of inhibition of kinase activity: 220 nM
[5]
  IC50: 19.9 µM

B2: human CEP192 442–533 (domain or fragment, UniProt Q8TEP8 442-533, looked up)
chain: IWSPTCERRTCECHESIEKNKDKTDLPQSVVYQNEEGRWVTDLAYYTSFNSKQNLNVSLSDEMNEDFRSGSEAFDLIAQDEEEFNKEHQFIQ
notes: Codon-optimised template from GenScript (CEP192 1-1000); source: E. coli B834 RIL, purified (HisTrap, TEV cleavage, SEC); 15N- or 15N/13C-labelled in Rosetta E. coli for NMR; not shown: His6, N-terminal, cleaved; SUMO, N-terminal, cleaved
[4]
  ADP-Glo, 10 nM phosphorylated Aurora-A^CAKD with kemptide: IC50 of partial inhibition of kinase activity: 32 nM
[6]
  IC50: 3.33 µM
[7]
  Kd: 72 nM
  stoichiometry N: 0.67
[8]
  IC50: 5.7 µM
[5]
  IC50: 4.2 µM
